{
  "source": "paper doi:10.1101/2025.10.08.681084",
  "molecular_target": "recombinant Nrf2-6×his (human) (UniProt Q16236)",
  "sequence (Q16236 whole entry, the tested form may be a part)": "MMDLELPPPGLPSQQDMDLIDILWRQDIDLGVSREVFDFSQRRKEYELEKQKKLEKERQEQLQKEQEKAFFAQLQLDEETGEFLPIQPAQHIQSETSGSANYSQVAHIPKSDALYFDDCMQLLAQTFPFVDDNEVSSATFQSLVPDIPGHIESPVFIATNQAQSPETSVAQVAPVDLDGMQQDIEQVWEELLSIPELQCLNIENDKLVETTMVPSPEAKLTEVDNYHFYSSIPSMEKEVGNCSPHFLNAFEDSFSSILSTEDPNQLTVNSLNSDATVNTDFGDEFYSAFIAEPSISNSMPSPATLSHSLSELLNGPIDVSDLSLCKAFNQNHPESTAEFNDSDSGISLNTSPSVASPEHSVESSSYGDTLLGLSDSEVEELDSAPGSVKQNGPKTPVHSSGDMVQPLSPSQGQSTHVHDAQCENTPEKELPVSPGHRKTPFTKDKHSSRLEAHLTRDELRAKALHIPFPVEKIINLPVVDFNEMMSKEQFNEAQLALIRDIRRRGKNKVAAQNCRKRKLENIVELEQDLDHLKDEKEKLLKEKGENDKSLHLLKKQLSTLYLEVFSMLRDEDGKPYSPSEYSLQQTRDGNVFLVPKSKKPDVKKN",
  "assay": "pull-down",
  "data": [
    {"substance": "recombinant K13 (TrK13-WT) (domain or fragment)", "values": [
      {"measurement": "percent reduction of binding of heme-bound TrK13-WT against heme-free TrK13-WT", "result": 26, "unit": "%"}
    ]}
  ]
}
